Source: publication PMC5845987

How the values were obtained:
[1] = target: CCAAT/enhancer binding protein β (C/EBPβ) (UniProt P17676)
[2] = target: CCAAT/enhancer binding protein β (C/EBPβ) (UniProt P17676); remark: listed apart in the source

Chain of UniProt P17676 (P17676 whole entry): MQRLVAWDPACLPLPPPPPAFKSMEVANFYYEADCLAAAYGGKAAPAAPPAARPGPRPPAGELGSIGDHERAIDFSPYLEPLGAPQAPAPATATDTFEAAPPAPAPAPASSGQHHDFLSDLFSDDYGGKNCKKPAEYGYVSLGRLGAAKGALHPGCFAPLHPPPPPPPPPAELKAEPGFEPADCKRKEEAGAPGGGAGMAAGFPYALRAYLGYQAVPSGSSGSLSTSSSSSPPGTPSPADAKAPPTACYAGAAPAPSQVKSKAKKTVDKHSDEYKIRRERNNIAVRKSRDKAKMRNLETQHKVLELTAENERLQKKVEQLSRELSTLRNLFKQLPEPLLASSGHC

B1: HPV8 E2 protein (human papillomavirus type 8 transcription factor E2) (natural protein)
chain: MENLSERFNVLQDQLMNIYEAAEQTLEAQIAHWLLLRKEAVLLYFARQKGITRIGYQPVPPLAVSEAKAKQAIGIMLQLQSLQKSEFADEPWTLVDTSIETYKNAPENHFKKGATPVEVIYDKQPDNANVYTMWKHIYYTDADDKWHKTTSGVNQTGIYYMQGSFRHYYVVFADDARRYSATGEWEVKINKDTVFAPVTSSTPPGSPPGQADTDTAAKTPTTSADSTSRQQRSPAKQPQQTETKGRRYGRRPSSRTRPQKEQRRSRSRHRTRSRSRSLSRVRAVGSTTVSRSRSSSLTKAVRPRSRSRSRGRATATSRRRAGRGSPRRRRSTSRSPSTNTFKRSQRGGGRRGRGRGSRGRRERSSSTSPTPTKRSRGESSRLRGVSPSEVGRSVQSVSAKHTGRLGRLLDEAIDPPVILVRGEANTLKCFRNRARVRYRGLFKYFSTTWSWVAGDSTERLGRSRMLILFTSAGQRKDFDETVKYPKGVDTSYGNLDSL
With B1 the murine S100A8 promoter luciferase reporter activity in RTS3b cells co-transfected with 0.005 μg C/EBPβ and 0.005, 0.04 or 0.2 μg HPV8 E2 expression vector (control set at 1) [1] was 7 fold, the endogenous S100A8 mRNA (qRT-PCR) in RTS3b cells co-transfected with HPV8 E2 and C/EBPβ: enhancement of C/EBPβ-mediated induction [2] was > 25 fold and the endogenous S100A8 protein level (Western blot quantification) in RTS3b cells co-transfected with HPV8 E2 and C/EBPβ [2] was 90 fold. It also gave an endogenous S100A9 mRNA (qRT-PCR) in RTS3b cells co-transfected with HPV8 E2 and C/EBPβ: enhancement of C/EBPβ-mediated induction [2] of 6 fold and an endogenous S100A9 protein level (Western blot quantification) in RTS3b cells co-transfected with HPV8 E2 and C/EBPβ [2] of 31 fold.
